Molecular target: T1, B7H3 (UniProt Q5ZPR3 29-534, limits assumed)
T1 construct: whole, on cells; also called CD276
T1 sequence (looked up): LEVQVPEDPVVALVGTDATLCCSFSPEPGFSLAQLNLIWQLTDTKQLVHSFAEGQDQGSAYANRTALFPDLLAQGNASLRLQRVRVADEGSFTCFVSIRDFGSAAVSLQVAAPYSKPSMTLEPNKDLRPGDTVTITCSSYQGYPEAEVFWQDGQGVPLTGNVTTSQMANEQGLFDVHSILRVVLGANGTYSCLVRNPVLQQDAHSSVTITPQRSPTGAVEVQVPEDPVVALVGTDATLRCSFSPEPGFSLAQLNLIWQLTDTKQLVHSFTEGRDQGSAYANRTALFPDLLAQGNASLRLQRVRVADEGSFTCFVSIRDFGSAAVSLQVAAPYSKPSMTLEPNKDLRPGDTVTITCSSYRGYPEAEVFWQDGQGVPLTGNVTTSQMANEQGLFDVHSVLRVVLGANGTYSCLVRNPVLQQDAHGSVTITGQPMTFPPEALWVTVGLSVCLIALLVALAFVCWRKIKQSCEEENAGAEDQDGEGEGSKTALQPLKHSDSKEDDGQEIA
Assay: flow cytometry on A375 cells

B1: DART-Fc B7H3xCD3 (bispecific antibody)
chain 1: DIQLTQSPSFLSASVGDRVTITCKASQNVDTNVAWYQQKPGKAPKALIYSASYRYSGVPSRFSGSGSGTDFTLTISSLQPEDFATYYCQQYNNYPFTFGQGTKLEIKGGGSGGGGEVQLVESGGGLVQPGGSLRLSCAASGFTFSTYAMNWVRQAPGKGLEWVGRIRSKYNNYATYYADSVKDRFTISRDDSKNSLYLQMNSLKTEDTAVYYCVRHGNFGNSYVSWFAYWGQGTLVTVSSGGCGGGEVAALEKEVAALEKEVAALEKEVAALEKGGGDKTHTCPPCPAPEAAGGPSVFLFPPKPKDTLMISRTPEVTCVVVDVSHEDPEVKFNWYVDGVEVHNAKTKPREEQYNSTYRVVSVLTVLHQDWLNGKEYKCKVSNKALPAPIEKTISKAKGQPREPQVYTLPPSREEMTKNQVSLWCLVKGFYPSDIAVEWESNGQPENNYKTTPPVLDSDGSFFLYSKLTVDKSRWQQGNVFSCSVMHEALHNHYTQKSLSLSPGK
chain 2: QAVVTQEPSLTVSPGGTVTLTCRSSTGAVTTSNYANWVQQKPGQAPRGLIGGTNKRAPWTPARFSGSLLGGKAALTITGAQAEDEADYYCALWYSNLWVFGGGTKLTVLGGGGSGGGGEVQLVESGGGLVQPGGSLRLSCAASGFTFSSFGMHWVRQAPGKGLEWVAYISSDSSAIYYADTVKGRFTISRDNAKNSLYLQMNSLRDEDTAVYYCGRGRENIYYGSRLDYWGQGTTVTVSSGGCGGGKVAALKEKVAALKEKVAALKEKVAALKE
chain 3: not shown
notes: Comparator; also called DART-Fc format B7H3xCD3; B7-H3 x CD3 Bispecific DART-A Diabody
binding result: binds

Source: patent publication US20200048350A1 (INHIBRX BIOSCIENCES, published 2020)
